Tests used:
[1] = molecular target: T1, human CEACAM5 expressed on cells (CHO-CEACAM5 transfectants; MKN45 and LS174T tumour cells) (human, UniProt P06731 35-685); experiment: flow cytometry on CHO-CEACAM5 cells, fluorochrome-conjugated anti-human IgG, MFI
T1 construct: whole, on cells; also called CEACAM5 on cells; hCEA
T1 sequence (looked up): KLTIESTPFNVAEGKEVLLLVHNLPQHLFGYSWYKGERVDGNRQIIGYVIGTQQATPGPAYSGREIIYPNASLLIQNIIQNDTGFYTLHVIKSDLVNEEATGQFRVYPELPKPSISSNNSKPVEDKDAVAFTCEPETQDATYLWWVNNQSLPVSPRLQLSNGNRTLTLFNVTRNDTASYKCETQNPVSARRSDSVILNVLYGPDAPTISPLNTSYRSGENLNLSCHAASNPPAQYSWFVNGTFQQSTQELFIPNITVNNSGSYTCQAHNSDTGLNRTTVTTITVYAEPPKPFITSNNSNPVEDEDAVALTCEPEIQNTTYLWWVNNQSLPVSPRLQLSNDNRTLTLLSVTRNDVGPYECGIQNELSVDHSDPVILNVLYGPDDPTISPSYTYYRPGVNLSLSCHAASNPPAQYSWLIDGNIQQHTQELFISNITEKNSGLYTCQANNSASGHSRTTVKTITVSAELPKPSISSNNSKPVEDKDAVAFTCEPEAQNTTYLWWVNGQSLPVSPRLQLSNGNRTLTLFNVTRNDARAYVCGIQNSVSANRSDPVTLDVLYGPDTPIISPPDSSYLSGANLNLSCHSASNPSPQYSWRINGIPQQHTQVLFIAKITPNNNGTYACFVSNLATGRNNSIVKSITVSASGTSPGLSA
Excerpt: (§1) The human CEACAM5 and CEACAM1 genes were cloned into pcDNA3.1, and the vector was subsequently stably transfected into CHO cells. […] Binding of the antibodies was detected using fluorochrome-conjugated anti-human IgG and analyzed using flow cytometry.

[2] = molecular target: T2, human CEACAM5, recombinant (R&D Systems #4128-CM-050) (human, UniProt P06731 35-685); experiment: dual-target ELISA: hCEACAM-5 coated, bsAb titrated, detected with biotinylated hCD40-muIg and streptavidin-HRP, luminescence; signal needs both targets bound
T2 construct: Bought; coated in ELISA and used as monomeric analyte in Octet; also called hCEACAM-5; Human CEACAM5-His; not shown: His tag
T2 sequence (looked up): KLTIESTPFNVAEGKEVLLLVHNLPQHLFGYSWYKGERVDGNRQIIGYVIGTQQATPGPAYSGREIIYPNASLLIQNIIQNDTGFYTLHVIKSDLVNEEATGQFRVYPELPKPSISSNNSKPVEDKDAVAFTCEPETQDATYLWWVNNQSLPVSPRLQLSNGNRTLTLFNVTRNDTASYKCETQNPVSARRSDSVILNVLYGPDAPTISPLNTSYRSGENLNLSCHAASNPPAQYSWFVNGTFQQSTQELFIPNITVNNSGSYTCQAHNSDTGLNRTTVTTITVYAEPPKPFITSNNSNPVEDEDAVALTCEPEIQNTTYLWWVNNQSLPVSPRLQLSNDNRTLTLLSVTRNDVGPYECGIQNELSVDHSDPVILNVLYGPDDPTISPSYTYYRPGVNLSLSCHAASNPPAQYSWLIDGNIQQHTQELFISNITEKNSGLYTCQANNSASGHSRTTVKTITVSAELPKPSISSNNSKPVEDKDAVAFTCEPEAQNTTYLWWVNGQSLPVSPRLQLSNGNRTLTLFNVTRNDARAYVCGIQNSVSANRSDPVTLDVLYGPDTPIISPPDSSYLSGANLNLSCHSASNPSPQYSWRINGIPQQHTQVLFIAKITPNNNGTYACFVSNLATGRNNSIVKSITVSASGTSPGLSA
Description: (§2) 96-well plates were coated with 0.5 μg/mL antigen, hCEACAM-1 (2244-CM-050, R&D Systems), hCEACAM-5 (4128-CM-050, R&D Systems), hCEACAM-6 (3934-CM-050, R&D Systems) or CEACAM-8 (9639-CM-050, R&D Systems) in PBS over night at 4° C. After washing in PBS/0.05% Tween 20 (PBST), the plates were blocked with PBST, 2% BSA for at least 30 minutes at room temperature before a second round of washing. RUBY bsAbs, diluted in PBST, 0.5% BSA, were then added and allowed to bind for at least 1 hour at room temperature. […] Finally, a final round of washing was performed and bound complexes detected using SuperSignal Pico Luminescent as substrate and luminescence signals were measured using Fluostar Optima.

[3] = molecular target: human CD40 expressed on cells (CD40 reporter cells, HEK Blue CD40L cells, primary B cells, tumour APCs) (human, UniProt P25942 21-277); experiment: cell-based or functional assay
[4] = molecular target: T3, biotinylated human CEACAM5-His (Acro Biosystems #CE5-H82E0) (human, UniProt P06731 35-685, biotinylated (site not stated)); experiment: Octet BLI, captured CEACAM5-biotin, bsAb in solution, 1:1 fit
T3 construct: also called CEACAM5-biotin; captured human CEACAM5-biotin; not shown: His tag
T3 sequence (looked up): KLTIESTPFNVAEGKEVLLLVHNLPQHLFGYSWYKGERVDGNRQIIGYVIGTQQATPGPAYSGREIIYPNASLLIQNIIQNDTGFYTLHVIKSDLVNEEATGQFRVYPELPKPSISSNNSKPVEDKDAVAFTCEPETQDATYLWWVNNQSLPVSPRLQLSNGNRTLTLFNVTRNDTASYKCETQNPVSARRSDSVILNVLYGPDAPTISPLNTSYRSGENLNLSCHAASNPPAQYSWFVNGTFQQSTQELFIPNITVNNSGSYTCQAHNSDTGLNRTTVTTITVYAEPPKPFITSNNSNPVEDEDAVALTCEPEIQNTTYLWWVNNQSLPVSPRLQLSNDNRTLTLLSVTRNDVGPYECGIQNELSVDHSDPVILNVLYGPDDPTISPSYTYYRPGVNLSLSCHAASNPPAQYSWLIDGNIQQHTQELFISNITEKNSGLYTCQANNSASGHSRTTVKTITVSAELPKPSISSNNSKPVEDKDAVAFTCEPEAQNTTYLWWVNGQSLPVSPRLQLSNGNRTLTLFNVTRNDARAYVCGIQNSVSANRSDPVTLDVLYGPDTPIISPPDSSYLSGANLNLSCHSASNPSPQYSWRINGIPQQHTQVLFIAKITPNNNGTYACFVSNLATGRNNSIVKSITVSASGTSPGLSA
Description: Kinetic measurements were performed in the Octet RED96 platform using several different setups. […] Monomeric human CD40-His-Avi tag (Acro Biosystems #CD0-H5228), monomeric Human CEACAM5-His (R&D Systems #4128-CM-050) or monomeric Cynomolgus CEACAM5-His (Sino Biological #90891-C08H) were ½ serially diluted in 1× kinetic buffer (Sartorius) starting at 500 nM or 100 nM. […] Binding kinetics was studied in 1× kinetic buffer where association was allowed for 100 sec, 300 sec or 600 sec followed by dissociation for 100 sec, 300 sec or 3600 sec. Sensor tips were regenerated with 10 mM Glycine pH 1.7. Data generated were referenced by subtracting blank or parallel buffer blank, the baseline was aligned to the y-axis, inter-step correction by alignment against dissociation was performed and the data was smoothed by Savitzky-Golay filter in the data analysis software (v9.0.0.14). The processed data was fitted using a 1:1 Langmuir binding model with R² or X² as a measurement of fitting accuracy.
Association was measured for 100 sec and dissociation measured for 100 sec.

[5] = molecular target: T4, human CEACAM1 expressed on CHO cells (human, UniProt P13688 35-526); experiment: flow cytometry on CHO-CEACAM1 cells, fluorochrome-conjugated anti-human IgG, MFI
T4 construct: whole, on cells; also called CHO-CEACAM1; CEACAM1 on cells
T4 sequence (looked up): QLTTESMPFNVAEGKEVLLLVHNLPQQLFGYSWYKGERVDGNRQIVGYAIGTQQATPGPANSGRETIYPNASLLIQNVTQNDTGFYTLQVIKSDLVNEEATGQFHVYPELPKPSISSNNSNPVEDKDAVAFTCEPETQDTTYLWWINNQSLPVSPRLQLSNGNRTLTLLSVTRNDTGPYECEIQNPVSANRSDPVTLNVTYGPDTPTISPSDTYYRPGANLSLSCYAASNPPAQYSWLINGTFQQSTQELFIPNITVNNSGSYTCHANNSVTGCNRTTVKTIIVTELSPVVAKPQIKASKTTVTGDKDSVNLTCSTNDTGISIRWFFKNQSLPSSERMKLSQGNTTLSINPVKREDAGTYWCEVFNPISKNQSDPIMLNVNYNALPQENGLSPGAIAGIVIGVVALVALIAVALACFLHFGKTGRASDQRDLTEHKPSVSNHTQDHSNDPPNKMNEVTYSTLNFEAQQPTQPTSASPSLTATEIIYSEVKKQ
Excerpt: as §1

[6] = molecular target: T5, human CEACAM6, recombinant (R&D Systems #3934-CM-050) (human, UniProt P40199 35-320); experiment: ELISA, antigen coated at 0.5 µg/mL, bsAb titrated, anti-human kappa-HRP, luminescence
T5 construct: also called hCEACAM-6
T5 sequence (looked up): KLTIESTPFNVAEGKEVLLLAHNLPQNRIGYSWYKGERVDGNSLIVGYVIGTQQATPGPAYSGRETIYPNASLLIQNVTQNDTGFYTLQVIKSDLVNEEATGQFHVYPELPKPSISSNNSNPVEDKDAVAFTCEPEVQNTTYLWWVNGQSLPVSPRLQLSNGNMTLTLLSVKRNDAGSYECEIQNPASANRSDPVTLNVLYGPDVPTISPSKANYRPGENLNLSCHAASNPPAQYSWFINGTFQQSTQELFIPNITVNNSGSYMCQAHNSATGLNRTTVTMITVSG
Description: as §2

[7] = molecular target: T2, human CEACAM5, recombinant (R&D Systems …); experiment: as above
Description: as §2

[8] = molecular target: T6, CEACAM-8, recombinant (R&D Systems #9639-CM-050) (UniProt P31997 35-320); experiment: as above
T6 sequence (looked up): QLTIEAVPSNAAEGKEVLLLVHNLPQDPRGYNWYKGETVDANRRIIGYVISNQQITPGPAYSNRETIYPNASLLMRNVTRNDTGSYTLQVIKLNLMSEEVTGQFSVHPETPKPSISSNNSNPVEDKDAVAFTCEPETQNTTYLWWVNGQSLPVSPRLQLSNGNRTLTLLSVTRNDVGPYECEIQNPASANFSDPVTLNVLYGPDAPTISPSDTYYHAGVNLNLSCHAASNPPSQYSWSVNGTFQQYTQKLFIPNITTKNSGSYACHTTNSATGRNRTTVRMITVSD
Description: as §2

Sequence of human CD40 expressed on cells (CD40 reporter cells, HEK Blue CD40L cells, primary B cells, tumour APCs) (P25942 21-277): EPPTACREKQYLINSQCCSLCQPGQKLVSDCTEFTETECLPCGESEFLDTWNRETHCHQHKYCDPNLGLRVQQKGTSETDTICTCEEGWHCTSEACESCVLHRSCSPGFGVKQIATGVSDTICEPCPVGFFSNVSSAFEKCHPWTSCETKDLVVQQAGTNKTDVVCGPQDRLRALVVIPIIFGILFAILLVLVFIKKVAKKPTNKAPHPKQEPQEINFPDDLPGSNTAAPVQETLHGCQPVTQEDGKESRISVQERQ

B1: Multi41 (bispecific antibody)
heavy 1: not shown
light: DIQMTQSPSSLSASVGDRVTITCRASQSISSYLNWYQEKPGKAPKLLIYAASSLQSGVPSRFSGSGSGTDFTLTISSLQPEDFATYYCQQWRSHLFTFGQGTKLEIKRTVAAPSVFIFPPSDEQLKSGTASVVCYLNNFYPREAKVQWKVDNALQSGNSQESVTEQDSKDSTYSLWSTLTLSKADYEKHKVYACEVTHQGLSSPVTKSFNRGEC
heavy 2: EVQLLESGGGLVQPGGSLRLSCAASGFTFSTYGMHWVREAPGKGLEWLSYISGGSSYIFYADSVKGRFTISRDNSKNTLYLQMNSLRAEDTAVYYCARILRGGSGMDLWGQGTLVTVSSASTKGPSVFPLAPSSKSTSGGTAALGCLVKDYFPEPVTVSWNSGALTSGVHTFPAVLQSSGLYSLTSVVEVPSSSLGTQTYICNVNHKPSNTKVDKKVEPKSC
notes: Optimised RUBY format, CEACAM5xCD40; copies: 2 + 2 + 2
[1]
  EC50 (read off the curve): ~3 nM
[2]
  EC50 (read off the curve): ~0.6 nM
[3]
  EC50 of SEAP release, HEK Blue CD40L reporter cells, bsAb crosslinked to CHO-CEACAM5 cells, 0 Raji sink cells/well: 0.03 nM
  EC50 of SEAP release, same assay, 10 000 Raji sink cells/well: 0.06 nM
  EC50 of SEAP release, same assay, 30 000 Raji sink cells/well: 0.13 nM
  EC50 of SEAP release, same assay, 90 000 Raji sink cells/well: 0.36 nM
[4]
  Kd: < 0.001 nM
  koff: < 1e-07 s⁻¹
  kon: 47000 M⁻¹ s⁻¹
[5]
  binding result: no binding (tested: about 400 nM)
[6]
  binding result: no binding (tested: 100 nM)
[7]
  EC50 (read off the curve): ~0.5 nM
[8]
  binding result: no binding (tested: 100 nM)

Reference: patent US20260146107A1 (ALLIGATOR BIOSCIENCE, published 2026)
